According to publication PMC10671485:
pKd: −log10 of the molar value.

Legend:
Test in all cases: fluorescence anisotropy
[1] = test system: POLRMT T993E (phosphomimic) (Homo sapiens); conditions: N=4; 20 mM Tris-HCl EDTA buffer (pH and salt not given), 3 nM labeled duplex, 0-20 nM POLRMT, 25 °C; fit with Hill slope
[2] = test system: POLRMT T315E (phosphomimic) (Homo sapiens); conditions: N=5; 20 mM Tris-HCl EDTA buffer (pH and salt not given), 3 nM labeled duplex, 0-20 nM POLRMT, 25 °C; fit with Hill slope
POLRMT WT (Homo sapiens) = conditions: no TFAM or TFB2M mentioned; N=7; 20 mM Tris-HCl EDTA buffer (pH and salt not given), 3 nM labeled duplex, 0-20 nM POLRMT, 25 °C; fit with Hill slope
[3] = test system: POLRMT K402Q (acetyl mimic) (Homo sapiens); conditions: N=5; 20 mM Tris-HCl EDTA buffer (pH and salt not given), 3 nM labeled duplex, 0-20 nM POLRMT, 25 °C; fit with Hill slope

Substance: light strand promoter (LSP) duplex
- pKd [1]: 8.54
- pKd [2]: 8.81
- pKd (POLRMT WT (Homo sapiens)): 8.46
- pKd [3]: 8.52
